The values that follow come from patent US20250011363A1, “OPTIMIZED SHORTENED PEPTIDE THAT BINDS TO ACETYLCHOLINE RECEPTOR, AND USE THEREOF” (SKINMED CO., LTD., priority 2021, published 2025).

The target of assay [1] is acetylcholine receptor. Put plainly: SPR, AchR immobilised on CM5 chip, peptide 10 uM. (In general: In SPR one partner is held on a chip, and binding of the other changes the refractive index at the surface.)
Assay [2] addresses acetylcholine receptor. Put plainly: SPR, AchR immobilized on CM5 chip, peptide at 10 uM.

KAEWRK [6mer-2-784] yielded a Binding affinity (RU) with acetylcholine receptor [1] of 26 RU.
With KKKSNR [6mer-1-809], in the assay with acetylcholine receptor [2], the Binding affinity (RU) turned out to be 12 RU.
Consider KITARR [6mer-2-771], for which the Binding affinity (RU) with acetylcholine receptor [1] is 26 RU.
On the same count and under the same terms, to RAEDKR [6mer-2-792] belongs 13 RU; to RFPWRK [6mer-2-776], 12 RU.
Regarding RRKKKR [6mer-1-799], the Binding affinity (RU) with acetylcholine receptor [2] worked out at 30 RU.
RKCNAR [6mer-1-810]: in the assay with acetylcholine receptor [2], the Binding affinity (RU) turned out to be 12 RU.
In turn, RNAPKK [6mer-2-778] registered a Binding affinity (RU) with acetylcholine receptor [1] of 21 RU.
With KAAHRR [6mer-2-779], in the assay with acetylcholine receptor [1], the Binding affinity (RU) was 13 RU.
Still for that read-out and setting: to RHCHRR [6mer-2-785] belongs 31 RU; to RCPFRK [6mer-2-769], 13 RU.
In the assay with acetylcholine receptor [1], KITIRK [6mer-2-780] came in with a Binding affinity (RU) of 31 RU.
In the assay with acetylcholine receptor [1], KMSMKK [6mer-2-775] registered a Binding affinity (RU) of 26 RU.
Take RKYHGR [6mer-1-802]: the Binding affinity (RU) with acetylcholine receptor [2] stood at 32 RU.
On the same count and under the same terms, to RREDFK [6mer-1-813] belongs 15 RU.
As for KIPVKK [6mer-2-760], the Binding affinity (RU) with acetylcholine receptor [1] stood at 15 RU.
In the assay with acetylcholine receptor [2], KKTTMK [6mer-1-830] returned a Binding affinity (RU) of 33 RU.
Take RMHKKR [6mer-2-793]: the Binding affinity (RU) with acetylcholine receptor [1] is 29 RU.
In turn, RKEKWK [6mer-1-825] came in with a Binding affinity (RU) in the assay with acetylcholine receptor [2] of 30 RU.
In turn, RICGRK [6mer-2-767] returned a Binding affinity (RU) with acetylcholine receptor [1] of 13 RU.
Still for that read-out and setting: the value for KKEKKK [6mer-2-788] was 30 RU.
As to RTHNKR [6mer-2-795], the Binding affinity (RU) in the assay with acetylcholine receptor [1] was found to be 16 RU.
For RKDHMK [6mer-1-812], the Binding affinity (RU) with acetylcholine receptor [2] is 26 RU.
Still for that read-out and setting: to KREPIK [6mer-1-822] belongs 17 RU; to RRFEMR [6mer-1-815], 23 RU; to KRDPFR [6mer-1-804], 31 RU.
Molecule KMKERR [6mer-2-763] gave a Binding affinity (RU) in the assay with acetylcholine receptor [1] of 19 RU.
In the assay with acetylcholine receptor [1], KHSPRK [6mer-2-765] yielded a Binding affinity (RU) of 23 RU.
On the same count and under the same terms, to KPDARR [6mer-2-773] belongs 11 RU.
In the case of RRPNMK [6mer-1-828], the Binding affinity (RU) with acetylcholine receptor [2] is 26 RU.
In the assay with acetylcholine receptor [1], KAEMRR [6mer-2-794] had a Binding affinity (RU) of 19 RU.
With KKCAVK [6mer-1-801], the Binding affinity (RU) with acetylcholine receptor [2] stood at 18 RU.
KRHTGK [6mer-1-823] had a Binding affinity (RU) with acetylcholine receptor [2] of 12 RU.
For RRFEKK [6mer-1-808], the Binding affinity (RU) with acetylcholine receptor [2] came out at 24 RU.
The same measure, in the same setting: the value for KRNDGK [6mer-1-820] was 12 RU.
In the assay with acetylcholine receptor [1], KNMNRK [6mer-2-791] had a Binding affinity (RU) of 27 RU.
For RKMKHK [6mer-1-803], the Binding affinity (RU) in the assay with acetylcholine receptor [2] worked out at 31 RU.
RKKTIR [6mer-1-806]: the Binding affinity (RU) with acetylcholine receptor [2] was determined as 12 RU.
KRHCHK [6mer-1-811]: the Binding affinity (RU) in the assay with acetylcholine receptor [2] was determined as 16 RU.
The same measure, in the same setting: the value for KKAHMR [6mer-1-826] was 31 RU; that for RKIKAR [6mer-1-818] was 14 RU.
As to RRDKNR [6mer-1-807], in the assay with acetylcholine receptor [2], the Binding affinity (RU) is 13 RU.
For the molecule RNAVKK [6mer-2-764], in the assay with acetylcholine receptor [1], the Binding affinity (RU) worked out at 31 RU.
Molecule RRIMKR [6mer-1-817] had a Binding affinity (RU) with acetylcholine receptor [2] of 16 RU.
As for RPTFRK [6mer-2-766], the Binding affinity (RU) in the assay with acetylcholine receptor [1] is 23 RU.
The same measure, in the same setting: to KNDVRR [6mer-2-777] belongs 31 RU; to RMEMRK [6mer-2-786], 30 RU.
Take RDMVRK [6mer-2-783]: the Binding affinity (RU) with acetylcholine receptor [1] came out at 32 RU.
The same measure, in the same setting: the value for KPWPKR [6mer-2-782] was 18 RU; that for RIWHKK [6mer-2-787] was 19 RU.
As to KKCNAK [6mer-1-814], the Binding affinity (RU) in the assay with acetylcholine receptor [2] was 15 RU.
Same read-out and setting: the value for RRIHKK [6mer-1-829] was 25 RU.
As for RCAGRR [6mer-2-790], the Binding affinity (RU) with acetylcholine receptor [1] was found to be 23 RU.
With KNENRK [6mer-2-789], in the assay with acetylcholine receptor [1], the Binding affinity (RU) was determined as 24 RU.
On the same count and under the same terms, the value for RHPAKK [6mer-2-772] was 15 RU; that for KTMNRK [6mer-2-781] was 28 RU.
Take RREHIR [6mer-1-800]: the Binding affinity (RU) with acetylcholine receptor [2] amounted to 15 RU.
Molecule RRTTNR [6mer-1-821] yielded a Binding affinity (RU) with acetylcholine receptor [2] of 22 RU.
In the assay with acetylcholine receptor [2], KRDTMK [6mer-1-805] returned a Binding affinity (RU) of 24 RU.
The same measure, in the same setting: the value for KKMNIK [6mer-1-824] was 12 RU.
Consider RDTPKK [6mer-2-798], for which the Binding affinity (RU) with acetylcholine receptor [1] came to 17 RU.
On to KFEERK [6mer-2-762], for which the Binding affinity (RU) in the assay with acetylcholine receptor [1] was determined as 24 RU.
In the case of KYMGRK [6mer-2-768], the Binding affinity (RU) with acetylcholine receptor [1] was 22 RU.
The molecule KFDARK [6mer-2-774] showed a Binding affinity (RU) with acetylcholine receptor [1] of 17 RU.
The molecule RKKKFR [6mer-1-827] gave a Binding affinity (RU) with acetylcholine receptor [2] of 30 RU.
Still for that read-out and setting: the value for RKIDFK [6mer-1-816] was 14 RU.
Consider RTEPRK [6mer-2-761], for which the Binding affinity (RU) with acetylcholine receptor [1] was determined as 29 RU.
Still for that read-out and setting: to RHCIKR [6mer-2-797] belongs 19 RU; to KPNMKK [6mer-2-770], 24 RU; to RMMARR [6mer-2-796], 32 RU.
In turn, KRMHAK [6mer-1-819] returned a Binding affinity (RU) in the assay with acetylcholine receptor [2] of 17 RU.
